Experimental data taken from patent US20220074947A1 (UCB, published 2022).

Experiments:
[1] = molecular target: T1, human TNFα in complex with compound (1) (human, UniProt P01375 77-233); experiment: SPR (BIAcore), against apo human TNFα
T1 construct: also called human TNFα +compound (1); TNFα-compound (1) complex

[2] = molecular target: T2, human TNFα in complex with compound (2) (human, UniProt P01375 77-233); experiment: SPR (BIAcore), against apo human TNFα
T2 construct: also called human TNFα +compound (2); compound-distorted human TNFα
T2 sequence (P01375 77-233 limits assumed, one chain of several): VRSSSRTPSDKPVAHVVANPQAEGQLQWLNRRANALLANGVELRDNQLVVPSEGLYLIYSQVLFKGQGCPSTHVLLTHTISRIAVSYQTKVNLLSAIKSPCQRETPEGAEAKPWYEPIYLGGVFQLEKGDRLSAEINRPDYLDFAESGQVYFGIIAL

T1 sequence (P01375 77-233 limits assumed, one chain of several): as above

B1: CA185_01979 mouse IgG1 (antibody, V domains shown)
VH: EVHLVESGPGLVKPSQSLSLTCSVTGYSITNSYWDWIRKFPGNKMEWMGYINYSGSTGYNPSLKSRISISRDTSNNQFFLQLNSITTEDTATYYCARGTYGYNAYHFDYWGRGVMVTVSS
VL: DIQMTQSPASLSASLEEIVTITCQASQDIGNWLSWYQQKPGKSPHLLIYGTTSLADGVPSRFSGSRSGTQYSLKISGLQVADIGIYVCLQAYSTPFTFGSGTKLEIKR
notes: mIgG1 heavy chain and kappa light chain; also called CA185_01979.0; VR0001842
- selective binding for compound-distorted over apo human TNFα (log) [1]: > 2 log
- selective binding for compound-distorted over apo human TNFα (log) [2]: > 2 log
